Test results from patent publication US20260216326A1 (PROMETHEUS BIOSCIENCES, published 2026).

T1: human TL1A (human, UniProt O95150 72-251, limits assumed)
T1 construct: also called tumor necrosis factor-like cytokine 1A; TNFSF15
T1 sequence (looked up): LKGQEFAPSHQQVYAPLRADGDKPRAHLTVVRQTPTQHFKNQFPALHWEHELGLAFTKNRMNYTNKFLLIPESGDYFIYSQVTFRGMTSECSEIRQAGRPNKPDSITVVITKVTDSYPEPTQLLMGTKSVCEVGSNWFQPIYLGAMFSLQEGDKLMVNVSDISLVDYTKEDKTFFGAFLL

T2: Cynomolgus TL1A (cynomolgus monkey, UniProt G7PRK8 72-251)
T2 construct: also called cynomolgus monkey TL1A
T2 sequence: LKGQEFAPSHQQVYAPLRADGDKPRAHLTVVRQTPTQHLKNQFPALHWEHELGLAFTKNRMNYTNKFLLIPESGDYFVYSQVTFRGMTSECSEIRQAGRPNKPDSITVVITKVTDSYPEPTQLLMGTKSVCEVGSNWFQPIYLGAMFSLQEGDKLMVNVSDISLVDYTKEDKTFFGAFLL

T3: Murine TL1A (mouse, UniProt Q5UBV8 76-252, limits assumed)
T3 construct: also called mouse TL1A
T3 sequence (looked up): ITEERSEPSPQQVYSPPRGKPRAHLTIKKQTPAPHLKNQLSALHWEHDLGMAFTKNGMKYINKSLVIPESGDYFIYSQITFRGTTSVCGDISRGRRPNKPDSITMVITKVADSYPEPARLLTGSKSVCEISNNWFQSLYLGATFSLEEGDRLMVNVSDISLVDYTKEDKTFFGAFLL

T4: TL1A in human blood (human, UniProt O95150 72-251, limits assumed)
T4 sequence (looked up): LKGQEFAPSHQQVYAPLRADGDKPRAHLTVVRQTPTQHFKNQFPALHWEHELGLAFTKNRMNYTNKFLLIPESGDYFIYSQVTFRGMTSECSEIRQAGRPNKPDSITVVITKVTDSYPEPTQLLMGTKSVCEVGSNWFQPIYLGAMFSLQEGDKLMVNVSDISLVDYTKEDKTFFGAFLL

T5: TNFSF6 (FasL) (human, UniProt P48023 134-281, limits assumed)
T5 sequence (looked up): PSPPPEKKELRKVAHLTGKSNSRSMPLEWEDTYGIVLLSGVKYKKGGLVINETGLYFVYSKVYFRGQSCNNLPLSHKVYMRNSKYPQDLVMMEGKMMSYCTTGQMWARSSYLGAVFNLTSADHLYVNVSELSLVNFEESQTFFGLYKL

T6: mouse recombinant TL1A protein (mouse, UniProt Q5UBV8 76-252, limits assumed)
T6 construct: also called mouse TL1A; murine TL1A
T6 sequence (looked up): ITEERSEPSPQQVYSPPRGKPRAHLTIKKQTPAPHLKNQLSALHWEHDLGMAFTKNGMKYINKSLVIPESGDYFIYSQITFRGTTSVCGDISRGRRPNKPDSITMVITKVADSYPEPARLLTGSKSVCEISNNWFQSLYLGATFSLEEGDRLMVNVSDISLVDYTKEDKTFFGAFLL

T7: TNFSF6 (FasL) (human, UniProt P48023 134-281, limits assumed)
T7 sequence (looked up): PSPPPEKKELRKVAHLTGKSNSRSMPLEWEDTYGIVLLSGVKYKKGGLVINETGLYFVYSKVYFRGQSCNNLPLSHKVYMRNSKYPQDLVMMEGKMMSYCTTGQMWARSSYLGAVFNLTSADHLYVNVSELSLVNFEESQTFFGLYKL

T8: recombinant human TL1A protein (tumor necrosis factor-like cytokine 1A) (human, UniProt O95150 72-251, limits assumed)
T8 construct: Recombinant protein used in ELISA, SPR and the TF-1 caspase assay; also called TNFSF15; soluble TL1A
T8 sequence (looked up): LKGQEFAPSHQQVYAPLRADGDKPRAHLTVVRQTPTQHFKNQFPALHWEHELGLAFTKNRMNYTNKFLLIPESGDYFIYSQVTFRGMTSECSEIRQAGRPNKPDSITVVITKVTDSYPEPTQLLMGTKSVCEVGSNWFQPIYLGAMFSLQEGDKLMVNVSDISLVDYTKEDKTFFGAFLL

T9: cynomolgus monkey TL1A protein (cynomolgus monkey, UniProt G7PRK8 72-251)
T9 construct: Recombinant protein in ELISA, SPR and the TF-1 assay; In the monkey whole blood IFN-gamma assays the TL1A is made by the animal's own PBMCs; also called cynomolgus TL1A; Cyno TL1A
T9 sequence: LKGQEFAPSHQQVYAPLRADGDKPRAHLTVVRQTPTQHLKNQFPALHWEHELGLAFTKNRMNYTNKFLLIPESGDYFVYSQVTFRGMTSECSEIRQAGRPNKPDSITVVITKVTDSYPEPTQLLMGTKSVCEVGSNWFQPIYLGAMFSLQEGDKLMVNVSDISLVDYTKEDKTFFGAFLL

T10: membrane-bound human TL1A on TNFSF15/HEK293 cells (human, UniProt O95150 1-251)
T10 construct: whole, on cells; also called membrane-associated TL1A
T10 sequence (looked up): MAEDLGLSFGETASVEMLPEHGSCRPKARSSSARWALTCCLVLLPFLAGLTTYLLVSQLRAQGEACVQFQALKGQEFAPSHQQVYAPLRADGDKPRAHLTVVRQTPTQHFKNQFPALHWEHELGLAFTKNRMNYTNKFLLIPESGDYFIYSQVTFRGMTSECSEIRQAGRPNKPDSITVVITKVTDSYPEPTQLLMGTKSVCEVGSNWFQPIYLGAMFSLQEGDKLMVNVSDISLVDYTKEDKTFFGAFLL

T11: rat recombinant TL1A protein (rat, UniProt Q8K3Y7 76-252, limits assumed)
T11 construct: also called rat TL1A
T11 sequence (looked up): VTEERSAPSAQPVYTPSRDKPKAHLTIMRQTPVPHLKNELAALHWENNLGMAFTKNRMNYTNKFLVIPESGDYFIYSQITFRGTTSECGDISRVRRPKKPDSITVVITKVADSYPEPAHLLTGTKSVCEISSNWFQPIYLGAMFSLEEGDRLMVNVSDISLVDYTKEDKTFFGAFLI


Legend:
human TL1A [1] = target: T1, human TL1A; experiment: method not given; three independent measurements, +/- standard deviation
Cynomolgus TL1A = target: T2, Cynomolgus TL1A; experiment: as above
Murine TL1A = target: T3, Murine TL1A; experiment: not named in the table (TL1A binding affinity row)
TL1A in human blood [2] = target: T4, TL1A in human blood; experiment: cell-based or functional assay
TL1A in human blood [3] = target: T4, TL1A in human blood; experiment: cell-based or functional assay; remark: listed apart in the source
TNFSF6 (FasL) [4] = target: T5, TNFSF6 (FasL); experiment: not named in the table (specificity row)
Source text: (§1) TL1A is the only known ligand for its functional receptor DR3. TL1A is also capable of binding to Decoy receptor 3 (DcR3), a soluble TNF receptor without a transmembrane domain.

TNFSF10 = target: T12, TNFSF10 (human, UniProt P50591 114-281, limits assumed); experiment: not named in the table (specificity row)
T12 construct: also called TRAIL
T12 sequence (P50591 114-281 limits assumed): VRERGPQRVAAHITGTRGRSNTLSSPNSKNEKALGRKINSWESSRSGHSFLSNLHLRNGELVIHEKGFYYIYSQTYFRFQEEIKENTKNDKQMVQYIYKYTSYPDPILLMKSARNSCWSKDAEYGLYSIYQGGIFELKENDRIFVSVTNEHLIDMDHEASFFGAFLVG
Source text: as §1

human TL1A [5] = target: T1, human TL1A; experiment: ELISA titration on plate-coated human TL1A, unpurified culture supernatant
[6] = target: T6, mouse recombinant TL1A protein; experiment: ELISA, titration of the antibody on recombinant mouse TL1A, A450 nm against [Ab] (nM), log axis
Protocol: (§2) ELISA for each protein was performed at least three times. The data from a representative experiment are shown and are mean±SD. Abbreviations: A=absorbance, Ab=antibody, Cyno=cynomolgus, nm=nanometer, nM=nanomolar. […] Samples were assayed in triplicate, on two separate occasions. Data presented are the mean TL1A concentrations of three animals per group±SD.

TNFSF14 (LIGHT) = TNFSF14 (LIGHT) (UniProt O43557 74-240, limits assumed); experiment: ELISA
Chain of TNFSF14 (LIGHT) (O43557 74-240 limits assumed): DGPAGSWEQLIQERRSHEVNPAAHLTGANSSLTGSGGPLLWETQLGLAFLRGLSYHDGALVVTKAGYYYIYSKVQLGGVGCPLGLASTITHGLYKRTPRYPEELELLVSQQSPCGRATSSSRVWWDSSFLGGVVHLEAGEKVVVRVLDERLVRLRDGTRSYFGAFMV
Source text: as §1

TNFSF6 (FasL) [7] = target: T7, TNFSF6 (FasL); experiment: ELISA
Source text: as §1

TNFSF10 (TRAIL) = TNFSF10 (TRAIL) (human, UniProt P50591 114-281, limits assumed); experiment: ELISA
Chain of TNFSF10 (TRAIL) (P50591 114-281 limits assumed): as the sequence (P50591 114-281 limits assumed) above
Source text: as §1

[8] = target: T8, recombinant human TL1A protein (tumor …); experiment: surface plasmon resonance (SPR), recombinant TL1A protein
[9] = target: T9, cynomolgus monkey TL1A protein; experiment: as above
[10] = target: T10, membrane-bound human TL1A on …; experiment: binding to TNFSF15/HEK293 cells stably transfected with human TL1A
[11] = target: T11, rat recombinant TL1A protein; experiment: ELISA, titration of the antibody on recombinant rat TL1A, A450 nm against [Ab] (nM), log axis
Protocol: as §2

[12] = target: T9, cynomolgus monkey TL1A protein; experiment: cell-based or functional assay
[13] = target: T9, cynomolgus monkey TL1A protein; experiment: ELISA on recombinant TL1A protein; cynomolgus monkey TL1A

| Kd (human TL1A [1]) [nM] | Kd (Cynomolgus TL1A) [nM] | binding result (Murine TL1A) | IC50 values, Mean; inhibition of interferon gamma release from multiple human donors (TL1A in human blood [2]) | % Inhibition at 1 nM Ig; interferon gamma release in human blood (TL1A in human blood [3]) [%] | % Inhibition at 10 nM Ig; interferon gamma release in human blood (TL1A in human blood [3]) [%] | binding result (TNFSF6 (FasL) [4]) | binding result (TNFSF10) | Kd (human TL1A [5]) [nM] | binding result [6] | binding result (TNFSF14 (LIGHT)) | binding result (TNFSF6 (FasL) [7]) | binding result (TNFSF10 (TRAIL)) | Kd [9] [nM] | EC50 [10] [nM] | binding result [11] | IC50 of inhibition of TL1A-induced caspase activation in cycloheximide-treated TF-1 cells [12] [nM] | mean IC50 of inhibition of IFN-gamma release in monkey whole blood stimulated with immune complex, IL-12 and IL-18 [12] [nM] | EC50 [13] [nM] | Binder | Kd [8] [nM] |
| --- | --- | --- | --- | --- | --- | --- | --- | --- | --- | --- | --- | --- | --- | --- | --- | --- | --- | --- | --- | --- |
| 0.059 | 0.0363 | no binding | 48.6 | 59.8 | 75.2 | no binding | no binding | 0.05 | – | – | – | – | – | – | – | – | – | – | A219 (antibody, V domains shown, IgG1) VH: QVQLVQSGAEVKKPGASVKVSCKASGFDIQDTYMHWVKQRPGQGLEWMGRIDPASGHTKYDPKFQVRVTITRDTSTSTVYLELSSLRSEDTAVYYCARSGGLPDVWGQGTTVTVSS VL: EIVLTQSPGTLSLSPGERATLSCRASSSVSYMYWYQQKPGQAPRPLIYATSNLASGIPDRFSGSGSGTDFTLTISRLEPEDFAVYYCQQWEGNPRTFGGGTKLEIK | – |
| – | – | – | – | – | – | – | – | – | no binding (tested: about 30 nM) | no binding | no binding | no binding | 0.04 | 17.4 | no binding (tested: about 30 nM) | 0.59 | 1.54 | 0.47 | anti-TL1A antibody A219 (antibody, V domains shown, Humanized monoclonal IgG1 with a kappa light chain, designed to abolish effector functions) VH: QVQLVQSGAEVKKPGASVKVSCKASGFDIQDTYMHWVKQRPGQGLEWMGRIDPASGHTKYDPKFQVRVTITRDTSTSTVYLELSSLRSEDTAVYYCARSGGLPDVWGQGTTVTVSS VL: EIVLTQSPGTLSLSPGERATLSCRASSSVSYMYWYQQKPGQAPRPLIYATSNLASGIPDRFSGSGSGTDFTLTISRLEPEDFAVYYCQQWEGNPRTFGGGTKLEIK | 0.06 |
